Target: HGF (hepatocyte growth factor/scatter factor) (UniProt P14210+P14210)
Test: filter
Details: 2'-F pyrimidines

Chain of HGF (hepatocyte growth factor/scatter factor) (P14210 32-494, chain 1 of 2): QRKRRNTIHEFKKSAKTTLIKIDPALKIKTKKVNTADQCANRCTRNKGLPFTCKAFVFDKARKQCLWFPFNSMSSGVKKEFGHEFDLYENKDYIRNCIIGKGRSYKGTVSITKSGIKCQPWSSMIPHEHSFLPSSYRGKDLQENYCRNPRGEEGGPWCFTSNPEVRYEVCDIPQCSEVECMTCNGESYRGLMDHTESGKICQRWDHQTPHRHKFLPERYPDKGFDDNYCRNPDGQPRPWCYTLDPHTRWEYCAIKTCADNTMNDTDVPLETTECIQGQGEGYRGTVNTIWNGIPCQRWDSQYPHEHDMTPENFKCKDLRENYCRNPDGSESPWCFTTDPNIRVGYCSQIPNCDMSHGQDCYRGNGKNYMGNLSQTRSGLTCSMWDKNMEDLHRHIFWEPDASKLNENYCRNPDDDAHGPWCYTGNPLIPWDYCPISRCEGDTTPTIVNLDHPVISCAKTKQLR
Chain of HGF (hepatocyte growth factor/scatter factor) (P14210 495-728, chain 2 of 2): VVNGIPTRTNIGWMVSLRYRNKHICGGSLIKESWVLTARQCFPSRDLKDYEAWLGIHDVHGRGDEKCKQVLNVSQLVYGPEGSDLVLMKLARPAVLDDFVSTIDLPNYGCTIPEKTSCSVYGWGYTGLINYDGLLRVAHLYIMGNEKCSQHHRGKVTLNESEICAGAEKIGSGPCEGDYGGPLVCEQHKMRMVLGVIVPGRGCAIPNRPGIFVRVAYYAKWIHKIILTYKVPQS

Sequence	Kd (one or two 5' G, one N in printed sequence) [nM]	Kd (random pool, 550 nM with competitor tRNA) [nM]
GGAGAGNUCCUAUUUAUGACAUCCCAUGCCCCCA [Tr65]	1.4	–
GGGAGGACGAUGCGGNNNNNNNNNNNNNNNNNNNNNNNNNNNNNNCAGACGACUCGCCCGA [random 30N7 pool]	–	1.6
